Data from publication PMC6648351 (Nucleic Acids Research, 2019).

B1: gp577 mutant D92A (enzyme, Acanthamoeba polyphaga mimivirus, UniProt A0A0G2YDL0 1-470, looked up)
chain: MAEDKIEAYNKSITRTKYFKMDDAINSPICSKTVFIIANERITKENRIGRYYTVFPSFKKFLKKRDSYPHCHEIIIDHINNKTNIAGRLVFAFDIKITDSSILKDTGLIDKNDNQPIMFNSKTLSITKIPLNFKQQIENTIIETIDQYFHDIDKTILEFIWSTSQNPNKFSKHLTVKNLYFDDWITMSKLFYKLFCKVWDNQYYWISSKDLVDSQIVRNKGSLRMVGSTKINGYPLVFDNKNHTLPDSLIRIYFRNHREKEQLVTRNNINKDIINQFLESNDDIEHHRSIDIIDRHFTKIRNPSYDPIIYQKAFEIYDAIHPNIFKMGKVNGKYLTLIRLKPHKCFLSNKFHEQENAYLYISMSDTTYKISFGCYRFCSKKKMEYLGSLIQGNLMKNSPYIDDTDGTTKKHDFNINIKFLSDSDDESINAPNNIKSLESIKSSKSKKQLKSSKSKKPIKHTKTKNIYVET
B2: gp577 mutant D213A (enzyme, Acanthamoeba polyphaga mimivirus, UniProt A0A0G2YDL0 1-470, looked up)
chain: MAEDKIEAYNKSITRTKYFKMDDAINSPICSKTVFIIANERITKENRIGRYYTVFPSFKKFLKKRDSYPHCHEIIIDHINNKTNIAGRLVFDFDIKITDSSILKDTGLIDKNDNQPIMFNSKTLSITKIPLNFKQQIENTIIETIDQYFHDIDKTILEFIWSTSQNPNKFSKHLTVKNLYFDDWITMSKLFYKLFCKVWDNQYYWISSKDLVASQIVRNKGSLRMVGSTKINGYPLVFDNKNHTLPDSLIRIYFRNHREKEQLVTRNNINKDIINQFLESNDDIEHHRSIDIIDRHFTKIRNPSYDPIIYQKAFEIYDAIHPNIFKMGKVNGKYLTLIRLKPHKCFLSNKFHEQENAYLYISMSDTTYKISFGCYRFCSKKKMEYLGSLIQGNLMKNSPYIDDTDGTTKKHDFNINIKFLSDSDDESINAPNNIKSLESIKSSKSKKQLKSSKSKKPIKHTKTKNIYVET
B3: gp577 mutant D239A (enzyme, Acanthamoeba polyphaga mimivirus, UniProt A0A0G2YDL0 1-470, looked up)
chain: MAEDKIEAYNKSITRTKYFKMDDAINSPICSKTVFIIANERITKENRIGRYYTVFPSFKKFLKKRDSYPHCHEIIIDHINNKTNIAGRLVFDFDIKITDSSILKDTGLIDKNDNQPIMFNSKTLSITKIPLNFKQQIENTIIETIDQYFHDIDKTILEFIWSTSQNPNKFSKHLTVKNLYFDDWITMSKLFYKLFCKVWDNQYYWISSKDLVDSQIVRNKGSLRMVGSTKINGYPLVFANKNHTLPDSLIRIYFRNHREKEQLVTRNNINKDIINQFLESNDDIEHHRSIDIIDRHFTKIRNPSYDPIIYQKAFEIYDAIHPNIFKMGKVNGKYLTLIRLKPHKCFLSNKFHEQENAYLYISMSDTTYKISFGCYRFCSKKKMEYLGSLIQGNLMKNSPYIDDTDGTTKKHDFNINIKFLSDSDDESINAPNNIKSLESIKSSKSKKQLKSSKSKKPIKHTKTKNIYVET
B4: gp577 mutant H173A (enzyme, Acanthamoeba polyphaga mimivirus, UniProt A0A0G2YDL0 1-470, looked up)
chain: MAEDKIEAYNKSITRTKYFKMDDAINSPICSKTVFIIANERITKENRIGRYYTVFPSFKKFLKKRDSYPHCHEIIIDHINNKTNIAGRLVFDFDIKITDSSILKDTGLIDKNDNQPIMFNSKTLSITKIPLNFKQQIENTIIETIDQYFHDIDKTILEFIWSTSQNPNKFSKALTVKNLYFDDWITMSKLFYKLFCKVWDNQYYWISSKDLVDSQIVRNKGSLRMVGSTKINGYPLVFDNKNHTLPDSLIRIYFRNHREKEQLVTRNNINKDIINQFLESNDDIEHHRSIDIIDRHFTKIRNPSYDPIIYQKAFEIYDAIHPNIFKMGKVNGKYLTLIRLKPHKCFLSNKFHEQENAYLYISMSDTTYKISFGCYRFCSKKKMEYLGSLIQGNLMKNSPYIDDTDGTTKKHDFNINIKFLSDSDDESINAPNNIKSLESIKSSKSKKQLKSSKSKKPIKHTKTKNIYVET
B5: gp577 mutant D151A (enzyme, Acanthamoeba polyphaga mimivirus, UniProt A0A0G2YDL0 1-470, looked up)
chain: MAEDKIEAYNKSITRTKYFKMDDAINSPICSKTVFIIANERITKENRIGRYYTVFPSFKKFLKKRDSYPHCHEIIIDHINNKTNIAGRLVFDFDIKITDSSILKDTGLIDKNDNQPIMFNSKTLSITKIPLNFKQQIENTIIETIDQYFHAIDKTILEFIWSTSQNPNKFSKHLTVKNLYFDDWITMSKLFYKLFCKVWDNQYYWISSKDLVDSQIVRNKGSLRMVGSTKINGYPLVFDNKNHTLPDSLIRIYFRNHREKEQLVTRNNINKDIINQFLESNDDIEHHRSIDIIDRHFTKIRNPSYDPIIYQKAFEIYDAIHPNIFKMGKVNGKYLTLIRLKPHKCFLSNKFHEQENAYLYISMSDTTYKISFGCYRFCSKKKMEYLGSLIQGNLMKNSPYIDDTDGTTKKHDFNINIKFLSDSDDESINAPNNIKSLESIKSSKSKKQLKSSKSKKPIKHTKTKNIYVET

Molecular target: the molecule itself
Test: SEC

With B1 as the protein, how does the “stoichiometry N” value read?
Its value is 2.

For B2, which “stoichiometry N” value is on record?
The value was 2.

With B3 as the protein, how does the “stoichiometry N” value read?
The value was 2.

How did the “stoichiometry N” value turn out when B4 was run?
The value was 2.

With B5 as the protein, how does the “stoichiometry N” value read?
Its value is 2.
